Test results reported in the supplement of paper PMC10126150.
± gives the standard deviation of the averaged measurements.

Tested on: ATP
Experiment: switch fluorescence ratio, 500 uM ATP over buffer (Cy3 cluster intensity, sum of 5 cycles each) (fold (ratio)); higher = stronger signal-on switching upon ATP binding; sequences stand for … in TCGTCGGCAGCGTCAGATGTGTATAAGAGACAGTTTTTTTTTTTTTTTTTTTTTTTTT…TC
Conditions: aptamer strand: ATP DNA aptamer (quencher-CACCTGGGGGAGTATTGCGGAGGAAGG + anchor), 100 nM annealed; ATP concentration: 500 uM
How it was run: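 The quencher-labelled ATP aptamer, at 100 nM, was annealed to Cy3-labelled switching-strand clusters on a modified Illumina MiSeq flow-cell. The clusters were imaged in selection buffer, then after 15 min with 500 uM ATP at 22 °C, and this buffer/ATP cycle ran five times with NaOH stripping and re-annealing between runs. Per-cluster fluorescence ratios, summed target-cycle over summed buffer-cycle Cy3 intensity, were averaged per switch-domain sequence. Clusters outside 100-1000 RFU were excluded.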
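Note: ATP exposure 15 min at 22 °C before imaging.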

Sequence | switch fluorescence ratio
ATTAAACGGG | 0.997 ± 0.012
ATTAAATAAC | 1.02 ± 0.02
ATTAAATCAG | 1.013 ± 0.0058
ATTAAATGAT | 0.9574 ± 0.002
ATTAACCAGG | 1.27 ± 0.065
ATTAACTTTG | 1.01 ± 0.05
ATTAAGAGTA | 0.961 ± 0.012
ATTAAGGATT | 1.01 ± 0.016
ATTAAGGCCC | 0.988 ± 0.044
ATTAAGGCGC | 0.998 ± 0.029
ATTAAGGGCA | 0.97 ± 0.011
ATTAAGGTAA | 1.01 ± 0.033
ATTAAGTTGG | 0.982 ± 0.022
ATTAAGTTTC | 0.9675 ± 0.0012
ATTAAGTTTT | 1 ± 0.028
ATTAATAGTT | 0.997 ± 0.053
ATTAATTTTG | 0.992 ± 0.023
ATTACGGAGA | 1.05 ± 0.069
ATTACGGGAT | 1.01 ± 0.062
ATTACGTAGC | 1.428 ± 0.0063
ATTACTGAGT | 1.03 ± 0.015
ATTACTGTGC | 0.94 ± 0.02
ATTACTTAAG | 1 ± 0.046
ATTAGAAGGG | 0.985 ± 0.061
ATTAGAATGG | 1 ± 0.01

Sequence | switch fluorescence ratio
ATTAGACGGA | 1.058 ± 0.0045
ATTAGATATA | 1 ± 0.035
ATTAGATTTT | 1.02 ± 0.12
ATTAGGAGAT | 0.9964 ± 0.0063
ATTAGGATTG | 1 ± 0.053
ATTAGGGGAG | 0.972 ± 0.0028
ATTAGGGTAT | 1.0078 ± 0.00026
ATTAGGTATG | 0.969 ± 0.016
ATTAGGTTGA | 0.975 ± 0.0047
ATTAGTACTG | 1.02 ± 0.02
ATTAGTCAGG | 1.03 ± 0.019
ATTAGTCGGT | 0.97109 ± 0.00068
ATTAGTTTTG | 0.99 ± 0.029
ATTATACGGC | 1.056 ± 0.0042
ATTATAGGGG | 0.986 ± 0.0017
ATTATAGTAA | 0.9886 ± 0.0022
ATTATATGTG | 1.02 ± 0.027
ATTATCAGTT | 0.987 ± 0.021
ATTATCGCGC | 0.983 ± 0.031
ATTATCTACT | 1.04 ± 0.026
ATTATGACGG | 0.982 ± 0.047
ATTATGAGTA | 0.9727 ± 0.0091
ATTATGATAT | 1.01 ± 0.015
ATTATGGAAG | 0.994 ± 0.018
ATTATGGCAC | 1.01 ± 0.0041

Sequence | switch fluorescence ratio
ATTATGGCGT | 0.999 ± 0.013
ATTATGGGAG | 0.989 ± 0.011
ATTATGGGTA | 1.02 ± 0.036
ATTATGGTCG | 0.999 ± 0.084
ATTATGTACT | 1.05 ± 0.022
ATTATGTCTG | 0.966 ± 0.071
ATTATTAATT | 0.973 ± 0.022
ATTATTACGT | 0.99 ± 0.038
ATTATTGACT | 1.04 ± 0.014
ATTATTGGCG | 1.01 ± 0.042
ATTATTGGGA | 1 ± 0.046
ATTATTGGGG | 0.9642 ± 0.0086
ATTCAAAAAA | 0.999 ± 0.039
ATTCAAATGT | 1 ± 0.03
ATTCAGGCTT | 1.029 ± 0.0019
ATTCAGGTTC | 0.996 ± 0.032
ATTCAGGTTG | 1.02 ± 0.016
ATTCATATGT | 0.999 ± 0.018
ATTCATGTGT | 1.02 ± 0.026
ATTCATTATT | 0.9927 ± 0.0049
ATTCATTGC | 1.038 ± 0.0048
ATTCATTGGG | 0.9872 ± 0.0075
ATTCCAATTT | 1.08 ± 0.035
ATTCCCAATT | 1.04 ± 0.025
ATTCGCCACT | 1.011 ± 0.0012

Sequence | switch fluorescence ratio
ATTCGCGAGG | 0.982 ± 0.027
ATTCGGGGCT | 1 ± 0.038
ATTCGGGGGG | 0.99 ± 0.022
ATTCGGTCTG | 0.9825 ± 0.006
ATTCGGTTGT | 1.001 ± 0.0059
ATTCGTGCGC | 1.071 ± 0.0046
ATTCGTTATG | 1 ± 0.013
ATTCGTTGG | 1 ± 0.038
ATTCTACGGC | 1.06 ± 0.073
ATTCTAGTAT | 0.962 ± 0.026
ATTCTAGTCG | 1.02 ± 0.086
ATTCTCCTTG | 1 ± 0.017
ATTCTCTGGT | 1.01 ± 0.076
ATTCTGCTCC | 0.991 ± 0.041
ATTCTTTGGT | 0.979 ± 0.054
ATTCTTTGTT | 0.962 ± 0.045
ATTCTTTTGG | 0.9726 ± 0.0041
ATTGAAGATT | 0.989 ± 0.037
ATTGACGAGG | 1.001 ± 0.0026
ATTGACGGGT | 0.9762 ± 0.0085
ATTGAGAGGG | 1.07 ± 0.075
ATTGAGCGGG | 1 ± 0.034
ATTGAGGAAT | 0.965 ± 0.064
ATTGAGGGGA | 0.994 ± 0.032
ATTGAGGGTC | 0.986 ± 0.018

Sequence | switch fluorescence ratio
ATTGAGTTAG | 0.99 ± 0.011
ATTGAGTTAT | 0.967 ± 0.019
ATTGATAGCA | 1.03 ± 0.028
ATTGATCTCC | 1.03 ± 0.072
ATTGATGATA | 1.018 ± 0.0092
ATTGATGGCC | 0.963 ± 0.032
ATTGATTCGG | 0.999 ± 0.014
ATTGCAGCGG | 1 ± 0.02
ATTGCATTCA | 0.9949 ± 0.0041
ATTGCCCGTT | 1.09 ± 0.21
ATTGCCGAGT | 1.03 ± 0.022
ATTGCGCAAG | 1.01 ± 0.02
ATTGCTATGG | 1.01 ± 0.016
ATTGCTATTC | 1.03 ± 0.014
ATTGCTGGGG | 1.01 ± 0.056
ATTGGAAAAG | 0.985 ± 0.035
ATTGGACTAG | 0.989 ± 0.07
ATTGGACTG | 1.01 ± 0.035
ATTGGAGGGT | 0.979 ± 0.025
ATTGGAGTGG | 0.994 ± 0.032
ATTGGATGTG | 0.981 ± 0.019
ATTGGCGTGC | 0.987 ± 0.03
ATTGGCGTGG | 1.01 ± 0.019
ATTGGGAGAT | 1.024 ± 0.0064
ATTGGGAGGT | 0.972 ± 0.033

Sequence | switch fluorescence ratio
ATTGGGCAGT | 0.973 ± 0.053
ATTGGGGAGA | 1.04 ± 0.052
ATTGGGGAGC | 0.989 ± 0.014
ATTGGGGATT | 1.013 ± 0.009
ATTGGGGCGC | 0.991 ± 0.041
ATTGGGTCGG | 0.996 ± 0.02
ATTGGTAGAG | 0.9717 ± 0.0024
ATTGGTAGTG | 0.997 ± 0.034
ATTGGTCAGC | 0.982 ± 0.035
ATTGGTGTAG | 0.972 ± 0.023
ATTGTAGGC | 1.01 ± 0.029
ATTGTAGTTT | 1 ± 0.066
ATTGTATAAG | 0.9828 ± 0.0052
ATTGTATCAG | 0.983 ± 0.027
ATTGTATGGA | 1 ± 0.011
ATTGTATGGT | 0.956 ± 0.012
ATTGTCAGTT | 1.013 ± 0.0029
ATTGTCGTGA | 0.991 ± 0.037
ATTGTCTAGC | 0.999 ± 0.019
ATTGTCTTCG | 0.987 ± 0.041
ATTGTGAACG | 1 ± 0.042
ATTGTGATGA | 1.024 ± 0.0085
ATTGTGCCGA | 0.972 ± 0.011
ATTGTGCGAC | 1 ± 0.021
ATTGTGCTTT | 1.04 ± 0.024

Sequence | switch fluorescence ratio
ATTGTGGAGC | 1.04 ± 0.061
ATTGTGGGGT | 0.977 ± 0.04
ATTGTGGTCC | 1.007 ± 0.0082
ATTGTGTTTT | 0.99 ± 0.062
ATTGTTGATC | 1.01 ± 0.029
ATTGTTTAAG | 1.01 ± 0.024
ATTGTTTAGC | 1.01 ± 0.075
ATTGTTTCCT | 1.06 ± 0.039
ATTTACGAGT | 0.981 ± 0.045
ATTTACGGGT | 1.015 ± 0.0082
ATTTAGGACT | 0.978 ± 0.027
ATTTAGGGTA | 0.9856 ± 0.0078
ATTTAGTTTA | 0.996 ± 0.017
ATTTATGCGG | 0.985 ± 0.029
ATTTATGGTA | 0.971 ± 0.014
ATTTATGTAA | 0.987 ± 0.012
ATTTATGTTT | 0.979 ± 0.03
ATTTATTCCT | 1.05 ± 0.015
ATTTATTCTA | 0.976 ± 0.036
ATTTATTCTT | 1.011 ± 0.0052
ATTTATTTGT | 0.986 ± 0.03
ATTTCAGTGT | 1.009 ± 0.0044
ATTTCATGCG | 1.03 ± 0.023
ATTTCATGTG | 0.9853 ± 0.0035
ATTTCCACAA | 1.1 ± 0.03

Sequence | switch fluorescence ratio
ATTTCCTGTG | 1.042 ± 0.0014
ATTTCGGGGT | 1.01 ± 0.042
ATTTCGGTCT | 0.9892 ± 0.0049
ATTTCTTTCA | 1.02 ± 0.033
ATTTGAAACT | 1.02 ± 0.029
ATTTGAAGGT | 1.01 ± 0.018
ATTTGAATGG | 0.987 ± 0.027
ATTTGAGGGC | 1.01 ± 0.033
ATTTGAGTTT | 1.01 ± 0.038
ATTTGATTTG | 1 ± 0.046
ATTTGCCCAT | 0.986 ± 0.019
ATTTGCGTAC | 1.277 ± 0.0018
ATTTGCTATT | 1.003 ± 0.0045
ATTTGCTTAG | 0.994 ± 0.021
ATTTGGAATT | 1 ± 0.027
ATTTGGACGT | 1.02 ± 0.016
ATTTGGCGGT | 0.997 ± 0.025
ATTTGGGACA | 1.01 ± 0.012
ATTTGGGCTT | 1.05 ± 0.12
ATTTGGGGCT | 0.981 ± 0.017
ATTTGGTTTT | 0.999 ± 0.04
ATTTGTAATC | 1.22 ± 0.31
ATTTGTATTG | 1.01 ± 0.022
ATTTGTGTAC | 1.047 ± 0.0071
ATTTGTGTTA | 1.01 ± 0.013
